Series [1] is described as follows: FLT difference between phosphorylated and non-phosphorylated fluoresceine-kemptide under various pH/NaCl conditions. It counts as physicochemical. The settings on record: 50 nM; pH 6.0 to 9.5 buffers. As to the method: 0.1 M NaOH, 50 mM borate buffer pH 9.5, 50 mM HEPES buffer pH 8.0, 50 mM HEPES buffer pH 7.0, 50 mM MES buffer pH 6.0, 200 mM NaCl (low)
The quality of an FLT assay improves with increasing differences of the fluorescence lifetimes of reactant and product. An optimally large FLT difference will not be measured immediately in every case. On the other hand, it should be possible to increase the FLT difference initially obtained, for example by selecting and combining various parameters such as, for example, fluorescent dye, spacer molecule between dye and substrate molecule, or polarity, pH, ionic strength of the solvent or other additive. […] In each case 50 nM Fl-P-kemptide and Fl-kemptide were dissolved in the solutions described under Material, and their FLTs were measured by means of a modified Nanoscan instrument (IOM GmbH, Berlin, Germany) which transferred the signals to a transient recorder. 16 decay curves were averaged for each data point. The descending part of the logarithmic-scale curve was evaluated by means of linear regression and the negative slope was mathematically converted into FLT.

Series [2] can be described thus: Fluorescence lifetime (FLT) of phosphorylated vs non-phosphorylated fluoresceine-peptide conjugate, Ultra FLT prototype (Tecan). Type of series: physicochemical. Particulars: 10 nM in 50 mM HEPES pH 7.5; mean of 10 measurements of 1 s. As to the method: It was intended to investigate whether there is a difference between the fluorescence lifetimes (FLTs) of the fluoresceine-peptide conjugates Fl-P1 and Fl-1. For this purpose, in each case 10 nM Fl-P1 and Fl-1 were dissolved in 50 mM HEPES pH 7.5. The fluorescence lifetimes (FLTs) were measured by means of an Ultra FLT prototype (Tecan). In each case, 10 measurements of 1 s each were averaged.

A further series concerns the target PDE1b phosphodiesterase (Homo sapiens, UniProt Q01064). The series can be described thus: PDE reaction with Fl-cAMP followed directly by fluorescence lifetime. Particulars: without inhibitor. Type of series: biochemical. The method, then: Like the phosphatases and kinases discussed above, phosphodiesterases are a very important class of targets, inter alia in the fields of indication of cardiovascular, metabolic disorders, central nervous system, cancer and respiratory diseases. It is therefore of great interest to have a generic assay format which can measure the conversion of cAMP or cGMP to the respective monophosphate. Usually detection enzyme cascades are used. […] In the experiment, first 1 μM Fl-cAMP and a 1:360 dilution of PDE1b were mixed in the presence of different concentrations of the inhibitor BAY 383045. The kinetics of the enzyme reaction was measured by means of an Ultra FLT prototype (Tecan) at room temperature.

Series [3] is described as follows: FLT of potential reactant and product of the TAFI enzyme reaction. The settings on record: 60 nM; independent of pH (6-9.5) and NaCl concentration (200 mM, 2 M). It counts as physicochemical. An excerpt:
The enzyme thrombin activated with fibrinolysis inhibitor (TAFI) is a carboxypeptidase which plays an important part in thromboses. TAFI cleaves the arginine of the peptide sequence IFTR. This reaction may be detected by either mass spectrometric or chromatographic methods. Both methods are not suitable for high throughput substance testing. Alternatively, more or less complex enzyme cascades or chemical reactions may be used which generate a measurable absorption, fluorescence or luminescence signal. No method has been described to date with which the TAFI reaction can be measured directly and which is suitable at the same time for higher throughput. Therefore, the fluorescence lifetimes of the conjugates FJ23 and FJ24 which both carry a fluorescent dye excitable at 630 nm (Evoblue30, Mobitec) and which differ only in the FJ24 conjugate lacking the C-terminal arginine were measured. FJ23 is a potential reactant of the TAFI reaction, while FJ24 would be the corresponding reaction product. The FJ23 and FJ24 conjugates were dissolved at a concentration of 60 nM in various buffers with pH values of 6, 7, 8 and 9.5, and in the presence of 200 mM and 2 M NaCl.

PDE1b phosphodiesterase, sequence (Q01064 whole entry): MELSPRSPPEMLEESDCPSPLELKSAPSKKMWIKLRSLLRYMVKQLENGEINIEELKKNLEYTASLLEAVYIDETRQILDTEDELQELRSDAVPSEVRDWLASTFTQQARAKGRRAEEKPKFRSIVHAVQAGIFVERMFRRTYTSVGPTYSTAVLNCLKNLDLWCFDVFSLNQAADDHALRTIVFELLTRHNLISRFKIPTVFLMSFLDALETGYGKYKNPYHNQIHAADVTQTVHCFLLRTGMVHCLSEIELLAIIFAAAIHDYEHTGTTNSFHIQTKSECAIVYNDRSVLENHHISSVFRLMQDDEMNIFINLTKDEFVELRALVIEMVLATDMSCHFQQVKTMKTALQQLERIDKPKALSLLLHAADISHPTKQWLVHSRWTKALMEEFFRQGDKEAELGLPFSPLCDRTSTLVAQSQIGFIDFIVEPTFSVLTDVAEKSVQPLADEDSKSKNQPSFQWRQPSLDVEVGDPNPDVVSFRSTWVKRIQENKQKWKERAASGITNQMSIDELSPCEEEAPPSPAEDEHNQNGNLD

For “fluoresceine-C6-LRRASLGCONH2 [Fl-kemptide]”, the “differentiation of phosphorylated and non-phosphorylated form by means of FLT” value in series [1] is listed as “improves when the pH increases from 6.0 to 9.5”.

Consider fluoresceine-C6-TEGQYpQPQP-COOH [Fl-P1], for which the “fluorescence lifetime (FLT)” value in series [2] is recorded as 3880 ps. With `Nc1ncnc2c1nc(SCCNC(=S)Nc1ccc(-c3c4ccc(=O)cc-4oc4cc(O)ccc34)c(C(=O)O)c1)n2C1OC2COP(=O)(O)OC2C1O` (stereo not shown) [Fl-cAMP, 8-fluo-cAMP], at PDE1b phosphodiesterase (1 μM Fl-cAMP, start of reaction), the “fluorescence lifetime at start of PDE1b reaction” value is “approx. 3500 ps”. Further, the “fluorescence lifetime after PDE1b reaction (conversion to Fl-AMP)” value at PDE1b phosphodiesterase (within 100 minutes of reaction) was “approx. 3350 ps”. As to “fluoresceine-C6-LRRApSLGCONH2 [Fl-P-kemptide]”, in series [1], the “differentiation of phosphorylated and non-phosphorylated form by means of FLT” value was “improves when the pH increases from 6.0 to 9.5”. As for “fluoresceine-C6-TEGQYQPQP-COOH ({fluorescein-C6}-TEGQYQPQP-OH) [Fl-1]”, the “fluorescence lifetime (FLT)” value in series [2] worked out at 3600 ps. Regarding Evoblue30-Ttds(Spacer)-IFTR-COOH [FJ24], in series [3], the fluorescence lifetime came out at 2194±18 ps.

(Values after patent publication US20070042500A1, “Direct observation of molecular modifications in biological test systems by measuring flourescence lifetime” (Bayer Healthcare AG, priority 2003, published 2007).)
